Measured values from paper PMC7484307 (Archives of biochemistry and biophysics, 2020).

Molecular target: the molecule itself
Test: AUC

B1: His-tagged ALDH9A1 (aldehyde dehydrogenase 9A1) (enzyme, human, UniProt P49189 1-494, looked up)
chain: MSTGTFVVSQPLNYRGGARVEPADASGTEKAFEPATGRVIATFTCSGEKEVNLAVQNAKAAFKIWSQKSGMERCRILLEAARIIREREDEIATMECINNGKSIFEARLDIDISWQCLEYYAGLAASMAGEHIQLPGGSFGYTRREPLGVCVGIGAWNYPFQIASWKSAPALACGNAMVFKPSPFTPVSALLLAEIYSEAGVPPGLFNVVQGGAATGQFLCQHPDVAKVSFTGSVPTGMKIMEMSAKGIKPVTLELGGKSPLIIFSDCDMNNAVKGALMANFLTQGQVCCNGTRVFVQKEILDKFTEEVVKQTQRIKIGDPLLEDTRMGPLINRPHLERVLGFVKVAKEQGAKVLCGGDIYVPEDPKLKDGYYMRPCVLTNCRDDMTCVKEEIFGPVMSILSFDTEAEVLERANDTTFGLAAGVFTRDIQRAHRVVAELQAGTCFINNYNVSPVELPFGGYKKSGFGRENGRVTIEYYSQLKTVCVEMGDVESAF
stoichiometry N: 4
